The source of these data is paper PMC5262456 (Science Advances, 2016).

Residue numbers refer to the chain shown, from its start. Names may count otherwise.

What is called stoichiometry N is a count of units in the complex or per binding partner. Usually Kd stands for the concentration at which binding is half-saturated. A low value points to higher affinity.

The labels stand for the following.
T1: Skp (ATP-independent periplasmic chaperone) (UniProt P0AEU7 21-161)
T1 sequence (looked up): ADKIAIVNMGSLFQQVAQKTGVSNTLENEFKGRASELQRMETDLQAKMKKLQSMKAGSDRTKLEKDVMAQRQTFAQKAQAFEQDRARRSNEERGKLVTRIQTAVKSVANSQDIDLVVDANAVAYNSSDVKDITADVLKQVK

T2: SurA (ATP-independent periplasmic chaperone) (UniProt P0ABZ6 21-428)
T2 sequence (looked up): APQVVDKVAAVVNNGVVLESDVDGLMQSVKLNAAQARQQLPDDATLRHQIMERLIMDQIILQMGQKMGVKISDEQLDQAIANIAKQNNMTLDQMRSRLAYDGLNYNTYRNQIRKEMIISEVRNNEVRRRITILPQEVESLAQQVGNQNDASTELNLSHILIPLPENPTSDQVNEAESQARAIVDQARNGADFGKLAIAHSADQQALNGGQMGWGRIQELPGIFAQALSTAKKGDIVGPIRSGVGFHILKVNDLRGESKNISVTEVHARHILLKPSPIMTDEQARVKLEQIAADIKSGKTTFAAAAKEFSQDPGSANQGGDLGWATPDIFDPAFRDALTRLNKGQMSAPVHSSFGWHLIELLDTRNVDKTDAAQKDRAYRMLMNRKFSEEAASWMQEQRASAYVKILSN

T3: Spy M85C with MTSL spin label (UniProt P77754 24-161, M85C, MTSL spin label on cysteine 85)
T3 sequence (looked up): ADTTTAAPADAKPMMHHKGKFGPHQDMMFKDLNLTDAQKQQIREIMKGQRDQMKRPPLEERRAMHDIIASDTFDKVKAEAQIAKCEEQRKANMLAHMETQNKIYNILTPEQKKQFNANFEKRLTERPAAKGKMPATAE

T4: Spy M53C with MTSL spin label (UniProt P77754 24-161, M53C, MTSL spin label on cysteine 53)
T4 sequence (looked up): T3 sequence (looked up) with M53C, C85M

T5: Spy T99C with MTSL spin label (UniProt P77754 24-161, T99C, MTSL spin label on cysteine 99)
T5 sequence (looked up): T3 sequence (looked up) with C85M, T99C

B1: Spy (ATP-independent periplasmic chaperone), wild type (natural protein, UniProt P77754 24-161, looked up)
chain: T3 sequence (looked up) with C85M
B2: Im7U T11C with MTSL spin label (natural protein, UniProt Q03708 1-87, looked up)
chain: MELKNSISDYCEAEFVQAAKEIEKENVAATDDVLDVALEHFVKITEHPDGTDLIYYPSDNRDDSPEGIVKEIKEWRAANGKPGFKQG
modifications: MTSL spin label on cysteine 11
B3: Im7U T30C with MTSL spin label (natural protein, UniProt Q03708 1-87, looked up)
chain: B2 chain with C11T, T30C
modifications: MTSL spin label on cysteine 30
B4: Im7 L18A L19A L37A (Im7U) (natural protein, UniProt Q03708 1-87, looked up)
chain: B2 chain with C11T
B5: Im7, wild type, full length (natural protein, UniProt Q03708 1-87, looked up)
chain: B2 chain with C11T, A18L, A19L, A37L

The data set “AUC” concerns the molecule itself. Kind of data set: AUC.
Data set [1] concerns the target B1. Put plainly: intramolecular paramagnetic relaxation enhancement.
The target of data set [2] is B1. Put plainly: ITC. (ITC needs no label: the signal is the heat of the interaction.)
Data set [3] addresses T1, Skp (ATP-independent periplasmic …). Put plainly: NMR titration.
Data set [4] deals with T2, SurA (ATP-independent periplasmic …). Put plainly: NMR titration.
Data set [5] concerns the target T3, Spy M85C with MTSL spin label. Put plainly: intermolecular paramagnetic relaxation enhancement.
Data set [6] concerns the target T1, Skp (ATP-independent periplasmic …).
For data set [7], the target named is T2, SurA (ATP-independent periplasmic …).
The target in data set [8] is T4, Spy M53C with MTSL spin label. Put plainly: intermolecular paramagnetic relaxation enhancement.
Data set [9] addresses T5, Spy T99C with MTSL spin label. Kind of data set: intermolecular paramagnetic relaxation enhancement.
Data set [10] concerns the target B1. Kind of data set: SPR.

For the molecule B1, the “stoichiometry N” value in “AUC” came to 2.
For the molecule B2, in [1], the binding result was “binds”.
With B3, the binding result in data set [1] is on record as “binds”.
Molecule B4 came in with a Kd in [2] of 0.327 µM. Besides, the dH in data set [2] turned out to be 8.9 ± 0.5 kcal/mol. The binding result in data set [3], in [4] and in [5] was “binds” each time.
For B5, the dissociation constant (Kd) in [6] was 66 µM; in data set [7] it was 50 µM; in data set [10], 20.3 ± 3.2 µM. The binding result in data set [8], in [5] and in data set [9] was “binds” in each case.
